How the values were obtained:
[1] = tested on: T1, 33-mer gliadin peptide LQLQPFPQPQLPYPQPQLPYPQPQLPYPQPQPF
T1 sequence: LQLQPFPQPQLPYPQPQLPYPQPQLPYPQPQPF

[2] = tested on: T2, gliadin peptide PQPQLPYPQPQLP
T2 sequence: PQPQLPYPQPQLP

[3] = tested on: recombinant alpha2-gliadin

Chain of barley endoprotease EPB2, mature form (chain, as listed by the source): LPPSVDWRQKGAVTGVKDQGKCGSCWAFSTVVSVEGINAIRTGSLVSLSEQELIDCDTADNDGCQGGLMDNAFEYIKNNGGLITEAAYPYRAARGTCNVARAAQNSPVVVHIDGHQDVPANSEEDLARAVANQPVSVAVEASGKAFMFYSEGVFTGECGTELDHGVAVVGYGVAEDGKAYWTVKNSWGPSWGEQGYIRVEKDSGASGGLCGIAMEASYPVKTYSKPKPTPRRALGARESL

Row | Substance | rate of substrate (33-mer+32-mer) disappearance [1] | Kcat/KM [2] [mM^-1/s^-1] | competitive proteolysis of the 13-mer and the 33-mer [2] | time to hydrolyze 10 µM of the 33-mer with 0.1 µM enzyme [1] | digestion of purified α2-gliadin under acidic conditions [3]
1 | Myxococcus xanthus prolyl endopeptidase (recombinant, expressed in E. coli) | 0.43 µM/min (MX PEP) | 548 | showed a clear preference for the 13-mer peptide | – | –
2 | Sphingomonas capsulata prolyl endopeptidase (recombinant, expressed in E. coli) | 0.07 µM/min (SC PEP) | 492 | showed a clear preference for the 13-mer peptide | required >1 hr to reach a comparable endpoint | –
3 | barley endoprotease EPB2, mature form | – | – | – | – | efficiently digests purified α2-gliadin

— patent US20050249719
